Test results: article PMC5552909, “The first description of a hormone‐sensitive lipase from a basidiomycete: Structural insights and biochemical characterization revealed Bjerkandera adusta BaEstB as a novel esterase” (MicrobiologyOpen, 2017)

Legend:
[1] = target: Bjerkandera adusta BaEstB, Hormone-Sensitive Lipase (HSL) family esterase (Bjerkandera adusta); test: dynamic light scattering (DLS); purified BaEstB without substrate; 30°C; Malvern Zetasizer Nano ZSP; 12 scans of 10 s; hydrodynamic radius from the Stokes-Einstein equation assuming spherical geometry
[2] = target: Bjerkandera adusta BaEstB, Hormone-Sensitive Lipase (HSL) family esterase (Bjerkandera adusta); test: dynamic light scattering (DLS); purified BaEstB in presence of the substrate 2-naphthyl acetate; same conditions, considering its optimum pH and temperature; 12 scans of 10 s
[3] = substrate: CC(=O)Oc1ccc2ccccc2c1; test: isothermal titration calorimetry, single injection, Michaelis-Menten fit; format: biochemical, Bjerkandera adusta; conditions: 30°C in methods, results state optimum pH and temperature (pH 7.0; 45°C)

Q: With “Bjerkandera adusta BaEstB, Hormone-Sensitive Lipase (HSL) family esterase (enzyme)” as the molecule, how does the stoichiometry N [1] read?
A: 2

Q: What about the stoichiometry N [2] of the same molecule?
A: 2

B1: BaEstB (Bjerkandera adusta) (protein)
chain: MESIRLSNAAGTISNDILAQVTFANEAIYPLLEKRRAEIENVTRKTFRYGALPGSEMDVYYPSSTPSGKAPVLAFVHGGAYVHGSKTHPPPGDLIYKNVGAFYASQGFVTVIPDYRKLPGMKWPDAPSDIASALTFLVAHSSDVNASAPTAADVQNIFLVGHSAGGAIASDVLLAPGLLPANVRRSVRGLIVFGGMMHYRGLEYPIPPFVLPGYYGTDEDVRAHEPLGLLESASDEIVRGLPDVLMVLSEHDVAAMRAAVTDFRSALAERTGKDVPLLVAQGHNHISPHYALSSGEGEEWGHDVIRWMRAKLASGNGVPATE
notes: full-length ORF (969 nt, M1-E322) in pPICZalphaA with myc and poly-His tags; secreted from Pichia pastoris X-33; dimer by DLS; catalytic triad S163, D252, H285
Q: Which results are given for B1?
A: Km [3]: 7.68 ± 0.62 µM; kcat [3]: 5.31 × 10^3 ± 20 s^−1
